Data on three compounds can be found in patent US20240041805A1, “PHARMACEUTICAL COMPOSITIONS OF NICLOSAMIDE AND A PROTEIN” (priority 2020, published 2024).

In brackets after ≈: the same amount, converted by molar mass. Several values for one entry are separate records, joined by “and”; a condition that tells them apart may be missing. Equal entries are not always repeated.

Series [1] is described as follows: Size exclusion chromatography of hLYS aggregation before and after spray drying and nebulization. It counts as physicochemical. Particulars: not nebulized. For orientation: SEC sorts molecules by how far they enter the pores of the column.
Series [2] can be described thus: FTIR-ATR secondary structure analysis of hLYS. It counts as physicochemical.
Series [3] relates to SARS-CoV-2. The format is cell-based.
Series [4] deals with methicillin-resistant S. aureus strain Mu50. Kind of series: Resazurin-based microbroth dilution assay. The format is cell-based. Particulars: S. aureus Mu50, hLYS alone.
In series [5] the test system is MERS-CoV. Nature of the series: microbe, parasite or virus in culture. It counts as cell-based. As to conditions: Middle East respiratory syndrome-related coronavirus, Vero C1008, read-out: EC50 dose for MERS-CoV.
Series [6] concerns SARS-CoV-2. Kind of series: microbe, parasite or virus in culture. The format is cell-based. As to conditions: Severe acute respiratory syndrome coronavirus 2, Vero C1008; Vero E6 cells, observed CPE, dose based on NIC content.
The nature of series [7]: Particle size distribution by laser diffraction (dry powder and reconstituted suspension). Particulars: after air jet milling (micronized).

By EC50 is commonly meant the concentration giving half of the maximal effect.

In series [1], “hLYS: recombinant human lysozyme (InVitria)” showed a Fragment of 0.7%, an HMW of 17.2% and a Monomer of 82.1%. In addition, in series [2] (1618-1625 cm^−1), the “Anti-parallel β-sheet” value is recorded as 21.7%. The “Parallel β-sheet” value in series [2] (1633-1637 cm^−1) is listed as 0.7%. This compound also displayed a α-helix in series [2] (1653 cm^−1) of 57.6%. Besides, in series [2] (1678-1680 cm^−1), the Turns is on record as 20.2%. Moreover, the “activity against SARS-CoV-2” value in series [3] (hLYS alone) is given as “appeared to exhibit activity against SARS-CoV-2”. Also, the inhibitory activity result in series [4] is listed as “No inhibitory activity”.
In the case of `O=C(Nc1ccc([N+](=O)[O-])cc1Cl)c1cc(Cl)ccc1O` [NIC-M, 5-Chloro-N-(2-chloro-4-nitrophenyl)salicylamide], the concentration giving a half-maximal response (EC50) in series [5] was determined as 0.016 µg/mL (≈ 0.0489 µM); in series [6] it was 0.03 µg/mL (≈ 0.0917 µM). Further, in series [3] (NIC dose of 0.125 μg/mL, quantified viral particles), the “inhibitory activity against SARS-CoV-2 compared to solubilized NIC” value is listed as “significantly improved activity compared to solubilized NIC”.
In the case of `O=C(Nc1ccc([N+](=O)[O-])cc1Cl)c1cc(Cl)ccc1O` [niclosamide, 5-Chloro-N-(2-chloro-4-nitrophenyl)salicylamide], in series [7], the X50 diameter is on record as 2.2 μm; the X90 diameter was 4.2 μm and 4.1 μm.
